The text below walks through data of US20050014242.

The test system of data set [1] is PFEK1-neuropsin-6×HIS (purified zymogen, not digested with EK).
Data set [2] concerns PFEK2-prostasin-6×HIS (purified zymogen, not digested with EK).
Data set [3] has as its system PFEK2-protease F-6×HIS (purified zymogen, not digested with EK).
Data set [4] has as its system PFEK1-protease MH2-6×HIS (purified zymogen, not digested with EK).
The subject of data set [5] is PFEK1-protease O-6×HIS (purified zymogen, not digested with EK).
For data set [6], the system named is CFEK2-prostasin-6×HIS (purified zymogen, not digested with EK).

Chain of PFEK2-protease F-6×HIS (purified zymogen, not digested with EK) (chain, as listed by the source): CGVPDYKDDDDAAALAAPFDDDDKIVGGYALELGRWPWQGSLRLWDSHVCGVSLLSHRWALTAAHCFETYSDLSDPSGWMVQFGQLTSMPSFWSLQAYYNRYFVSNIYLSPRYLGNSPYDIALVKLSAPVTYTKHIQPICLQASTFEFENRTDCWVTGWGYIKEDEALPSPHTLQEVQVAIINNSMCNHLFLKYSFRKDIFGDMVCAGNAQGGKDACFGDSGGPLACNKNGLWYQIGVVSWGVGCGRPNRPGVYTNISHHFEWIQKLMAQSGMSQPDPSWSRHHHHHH
Chain of PFEK1-protease MH2-6×HIS (purified zymogen, not digested with EK) (chain, as listed by the source): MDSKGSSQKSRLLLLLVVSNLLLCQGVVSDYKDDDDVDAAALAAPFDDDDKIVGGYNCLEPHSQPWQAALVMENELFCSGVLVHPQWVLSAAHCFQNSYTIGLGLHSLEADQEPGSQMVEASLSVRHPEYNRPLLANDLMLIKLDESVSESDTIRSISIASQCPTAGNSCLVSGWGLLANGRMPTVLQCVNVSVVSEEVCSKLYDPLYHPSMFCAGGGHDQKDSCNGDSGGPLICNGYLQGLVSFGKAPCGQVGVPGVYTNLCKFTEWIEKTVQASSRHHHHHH

Regarding enterokinase, the “cleavage of the zymogen (SDS-PAGE and anti-FLAG Western blot)” value in data set [1] was “quantitative cleavage of the expressed and purified zymogen to generate the processed and activated protease”; in data set [2], “quantitative cleavage of the expressed and purified zymogen to generate the processed and activated protease”; in data set [3], “quantitative cleavage of the expressed and purified zymogen to generate the processed and activated protease”; in data set [4], “quantitative cleavage of the expressed and purified zymogen to generate the processed and activated protease”; in data set [5], “quantitative cleavage of the expressed and purified zymogen to generate the processed and activated protease”; in data set [6] it was “quantitative cleavage of the expressed and purified zymogen to generate the processed and activated protease”.
